Assay results as given in article PMC9482650, “Quantitative fragmentomics allow affinity mapping of interactomes” (Nature Communications, 2022).

B1: GRIN2A, Q12879 (peptide)
chain: KKMPSIESDV
B2: CLDN14, O95500 (peptide)
chain: HSGYRLNDYV
B3: PLEKHA2, Q9HB19 (peptide)
chain: DDENIRTSDV
B4: TGFA, P01135 (peptide)
chain: TACCHSETVV

Assays:
Assay in all cases: holdup assay
Design in all cases: key: below the threshold = too weak to quantify, mostly under pKd 3.1 to 4
Settings in all cases: plain residues with an end cap or a label only (N-terminal biotin on a linker: ado-ado)
DLG4_3, P78352 = biological target: DLG4_3, P78352
GRIP1_3, Q9Y3R0 = biological target: T1, GRIP1_3, Q9Y3R0
T1 sequence (Q9Y3R0 247-346, limits assumed, looked up): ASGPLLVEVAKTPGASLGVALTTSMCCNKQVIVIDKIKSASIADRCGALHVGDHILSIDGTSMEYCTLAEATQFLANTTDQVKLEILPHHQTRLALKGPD

PDZRN3_1, Q9UPQ7 = biological target: T2, PDZRN3_1, Q9UPQ7
T2 sequence (Q9UPQ7 244-349, limits assumed, looked up): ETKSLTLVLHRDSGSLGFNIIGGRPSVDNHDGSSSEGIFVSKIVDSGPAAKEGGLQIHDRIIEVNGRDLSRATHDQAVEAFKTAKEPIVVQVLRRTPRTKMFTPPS

LNX1_3, Q8TBB1 = biological target: LNX1_3, Q8TBB1
GORASP2, Q9H8Y8 = biological target: GORASP2, Q9H8Y8
Inadl_10, Q8NI35 = biological target: Inadl_10, Q8NI35
GRIP1_5, Q9Y3R0 = biological target: T3, GRIP1_5, Q9Y3R0
T3 sequence (Q9Y3R0 568-668, limits assumed, looked up): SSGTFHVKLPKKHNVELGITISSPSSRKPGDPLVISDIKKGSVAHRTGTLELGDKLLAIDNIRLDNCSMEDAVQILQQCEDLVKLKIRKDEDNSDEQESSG

HTRA1, Q92743 = biological target: HTRA1, Q92743
GRIP1_2, Q9Y3R0 = biological target: T4, GRIP1_2, Q9Y3R0
T4 sequence (Q9Y3R0 145-248, limits assumed, looked up): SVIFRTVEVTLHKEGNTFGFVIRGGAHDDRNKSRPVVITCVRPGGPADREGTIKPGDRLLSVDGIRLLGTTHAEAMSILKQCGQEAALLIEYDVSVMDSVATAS

NHERF4_4, Q86UT5 = biological target: NHERF4_4, Q86UT5
PDLIM1, O00151 = biological target: PDLIM1, O00151
PDZRN4_1, Q6ZMN7 = biological target: PDZRN4_1, Q6ZMN7
RADIL, Q96JH8 = biological target: T5, RADIL, Q96JH8
T5 sequence (Q96JH8 971-1071, limits assumed, looked up): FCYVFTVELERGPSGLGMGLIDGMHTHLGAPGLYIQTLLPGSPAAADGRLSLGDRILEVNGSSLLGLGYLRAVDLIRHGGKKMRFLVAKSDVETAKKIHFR

NHERF4_2, Q86UT5 = biological target: NHERF4_2, Q86UT5
DLG4_2, P78352 = biological target: DLG4_2, P78352
LNX1_1, Q8TBB1 = biological target: LNX1_1, Q8TBB1
DVL3, Q92997 = biological target: T6, DVL3, Q92997
T6 sequence (Q92997 244-331, limits assumed, looked up): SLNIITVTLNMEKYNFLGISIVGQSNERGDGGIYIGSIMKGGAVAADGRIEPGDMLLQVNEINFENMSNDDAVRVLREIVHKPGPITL

GORASP1, Q9BQQ3 = biological target: GORASP1, Q9BQQ3
MAST2, Q6P0Q8 = biological target: MAST2, Q6P0Q8
DFNB31_3, Q9P202 = biological target: T7, DFNB31_3, Q9P202
T7 sequence (Q9P202 811-907, limits assumed, looked up): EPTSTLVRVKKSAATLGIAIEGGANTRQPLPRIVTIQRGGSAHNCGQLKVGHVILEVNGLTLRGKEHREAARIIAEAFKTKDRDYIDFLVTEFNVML

RAPGEF6, Q8TEU7 = biological target: T8, RAPGEF6, Q8TEU7
T8 sequence (Q8TEU7 525-625, limits assumed, looked up): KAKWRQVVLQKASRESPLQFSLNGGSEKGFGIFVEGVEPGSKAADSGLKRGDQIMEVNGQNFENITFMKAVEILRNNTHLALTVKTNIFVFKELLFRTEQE

TJP2_1, Q9UDY2 = biological target: TJP2_1, Q9UDY2
MAGI1_1, Q96QZ7 = biological target: MAGI1_1, Q96QZ7
LIN7A, O14910 = biological target: T9, LIN7A, O14910
T9 sequence (O14910 103-200, limits assumed, looked up): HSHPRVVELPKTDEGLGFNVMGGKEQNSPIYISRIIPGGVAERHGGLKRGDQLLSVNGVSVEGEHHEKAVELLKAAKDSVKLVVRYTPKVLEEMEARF

GIPC2, Q8TF65 = biological target: GIPC2, Q8TF65
SCRIB_1, Q14160 = biological target: SCRIB_1, Q14160
RHPN1, Q8TCX5 = biological target: T10, RHPN1, Q8TCX5
T10 sequence (Q8TCX5 508-602, limits assumed, looked up): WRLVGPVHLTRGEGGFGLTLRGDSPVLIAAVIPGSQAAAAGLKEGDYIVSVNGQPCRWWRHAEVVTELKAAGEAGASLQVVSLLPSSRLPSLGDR

LNX1_3, Q8TBB1, sequence (Q8TBB1 500-596): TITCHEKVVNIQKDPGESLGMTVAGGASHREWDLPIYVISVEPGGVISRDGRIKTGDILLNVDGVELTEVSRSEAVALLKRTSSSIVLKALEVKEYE
TJP2_1, Q9UDY2, sequence (Q9UDY2 24-128): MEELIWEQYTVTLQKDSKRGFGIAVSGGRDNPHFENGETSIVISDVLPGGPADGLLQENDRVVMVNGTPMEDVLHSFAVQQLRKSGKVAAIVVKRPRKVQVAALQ
MAST2, Q6P0Q8, sequence (Q6P0Q8 1099-1202): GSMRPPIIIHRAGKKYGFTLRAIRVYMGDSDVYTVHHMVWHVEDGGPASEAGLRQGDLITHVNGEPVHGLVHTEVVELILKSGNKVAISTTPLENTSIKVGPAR
DLG4_3, P78352, sequence (P78352 306-403): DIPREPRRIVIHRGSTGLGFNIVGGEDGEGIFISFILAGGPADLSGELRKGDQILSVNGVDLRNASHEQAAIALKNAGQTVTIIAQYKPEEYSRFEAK
NHERF4_2, Q86UT5, sequence (Q86UT5 220-308): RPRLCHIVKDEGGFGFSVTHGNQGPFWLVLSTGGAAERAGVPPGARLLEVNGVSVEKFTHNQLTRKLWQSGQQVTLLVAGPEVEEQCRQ
Inadl_10, Q8NI35, sequence (Q8NI35 1673-1763): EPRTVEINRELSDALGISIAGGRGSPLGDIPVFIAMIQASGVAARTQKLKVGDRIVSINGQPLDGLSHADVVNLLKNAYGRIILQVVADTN
GIPC2, Q8TF65, sequence (Q8TF65 112-203): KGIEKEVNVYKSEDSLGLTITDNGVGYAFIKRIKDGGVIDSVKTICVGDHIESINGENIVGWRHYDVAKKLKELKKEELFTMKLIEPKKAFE
LNX1_1, Q8TBB1, sequence (Q8TBB1 261-371): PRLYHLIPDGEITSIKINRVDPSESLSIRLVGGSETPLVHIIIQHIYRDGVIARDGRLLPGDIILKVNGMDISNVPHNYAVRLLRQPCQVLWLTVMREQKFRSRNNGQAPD
NHERF4_4, Q86UT5, sequence (Q86UT5 464-550): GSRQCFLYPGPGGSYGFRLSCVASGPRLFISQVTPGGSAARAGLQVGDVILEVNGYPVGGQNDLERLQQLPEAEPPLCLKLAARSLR
MAGI1_1, Q96QZ7, sequence (Q96QZ7 1-106): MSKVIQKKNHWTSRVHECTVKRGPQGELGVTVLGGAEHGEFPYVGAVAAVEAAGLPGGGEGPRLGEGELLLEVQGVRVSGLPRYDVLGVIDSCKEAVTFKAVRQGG
PDLIM1, O00151, sequence (O00151 1-87): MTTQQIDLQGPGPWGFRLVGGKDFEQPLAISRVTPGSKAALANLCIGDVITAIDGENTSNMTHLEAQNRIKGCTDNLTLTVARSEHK
GORASP1, Q9BQQ3, sequence (Q9BQQ3 1-208): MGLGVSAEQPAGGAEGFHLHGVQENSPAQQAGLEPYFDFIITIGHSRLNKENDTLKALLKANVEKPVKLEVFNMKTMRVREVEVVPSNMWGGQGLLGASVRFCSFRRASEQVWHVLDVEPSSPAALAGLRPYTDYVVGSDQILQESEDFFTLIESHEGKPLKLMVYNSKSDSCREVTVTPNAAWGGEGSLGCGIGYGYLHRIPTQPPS
HTRA1, Q92743, sequence (Q92743 360-477): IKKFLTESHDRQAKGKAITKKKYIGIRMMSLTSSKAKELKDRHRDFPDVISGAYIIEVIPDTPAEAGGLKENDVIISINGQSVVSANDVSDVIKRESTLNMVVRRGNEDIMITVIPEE
DLG4_2, P78352, sequence (P78352 155-259): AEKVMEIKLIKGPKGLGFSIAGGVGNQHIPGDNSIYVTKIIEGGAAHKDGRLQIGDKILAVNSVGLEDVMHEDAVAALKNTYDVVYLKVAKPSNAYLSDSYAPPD
SCRIB_1, Q14160, sequence (Q14160 718-814): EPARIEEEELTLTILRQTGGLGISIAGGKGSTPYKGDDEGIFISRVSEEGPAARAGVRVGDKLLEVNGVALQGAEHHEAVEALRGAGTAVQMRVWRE
PDZRN4_1, Q6ZMN7, sequence (Q6ZMN7 213-318): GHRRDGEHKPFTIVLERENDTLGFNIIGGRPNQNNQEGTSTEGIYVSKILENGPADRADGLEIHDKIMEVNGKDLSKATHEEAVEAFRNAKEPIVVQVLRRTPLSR

pKd (DLG4_3, P78352)	pKd (GRIP1_3, Q9Y3R0)	pKd (PDZRN3_1, Q9UPQ7)	pKd (LNX1_3, Q8TBB1)	pKd (GORASP2, Q9H8Y8)	pKd (Inadl_10, Q8NI35)	pKd (GRIP1_5, Q9Y3R0)	pKd (HTRA1, Q92743)	pKd (GRIP1_2, Q9Y3R0)	pKd (NHERF4_4, Q86UT5)	pKd (PDLIM1, O00151)	pKd (PDZRN4_1, Q6ZMN7)	pKd (RADIL, Q96JH8)	pKd (NHERF4_2, Q86UT5)	pKd (DLG4_2, P78352)	pKd (LNX1_1, Q8TBB1)	pKd (DVL3, Q92997)	pKd (GORASP1, Q9BQQ3)	pKd (MAST2, Q6P0Q8)	pKd (DFNB31_3, Q9P202)	further results	Binder
below the threshold	below the threshold	below the threshold	below the threshold	below the threshold	below the threshold	below the threshold	below the threshold	below the threshold	below the threshold	3.93	below the threshold	below the threshold	below the threshold	5.29	4.04	below the threshold	below the threshold	4.95	below the threshold	pKd (RAPGEF6, Q8TEU7): below the threshold; pKd (TJP2_1, Q9UDY2): below the threshold; pKd (MAGI1_1, Q96QZ7): below the threshold; pKd (LIN7A, O14910): below the threshold; pKd (GIPC2, Q8TF65): 3.84; pKd (SCRIB_1, Q14160): 4.34; pKd (RHPN1, Q8TCX5): 3.83	B1
below the threshold	below the threshold	below the threshold	below the threshold	3.85	below the threshold	below the threshold	4.34	below the threshold	3.94	below the threshold	below the threshold	4.6	below the threshold	below the threshold	below the threshold	3.66	3.75	3.89	below the threshold	pKd (RAPGEF6, Q8TEU7): below the threshold; pKd (TJP2_1, Q9UDY2): 4.72; pKd (MAGI1_1, Q96QZ7): below the threshold; pKd (LIN7A, O14910): below the threshold; pKd (GIPC2, Q8TF65): below the threshold; pKd (SCRIB_1, Q14160): below the threshold; pKd (RHPN1, Q8TCX5): below the threshold	B2
below the threshold	below the threshold	below the threshold	below the threshold	below the threshold	below the threshold	below the threshold	below the threshold	below the threshold	below the threshold	below the threshold	below the threshold	below the threshold	below the threshold	4.38	4.5	below the threshold	below the threshold	4.9	below the threshold	pKd (RAPGEF6, Q8TEU7): below the threshold; pKd (TJP2_1, Q9UDY2): below the threshold; pKd (MAGI1_1, Q96QZ7): below the threshold; pKd (LIN7A, O14910): below the threshold; pKd (GIPC2, Q8TF65): 3.84; pKd (SCRIB_1, Q14160): 3.75; pKd (RHPN1, Q8TCX5): 3.92	B3
below the threshold	below the threshold	3.78	below the threshold	4.05	below the threshold	below the threshold	4.62	below the threshold	below the threshold	below the threshold	3.67	4.35	below the threshold	4.82	4.12	below the threshold	3.67	5.1	below the threshold	pKd (RAPGEF6, Q8TEU7): below the threshold; pKd (TJP2_1, Q9UDY2): below the threshold; pKd (MAGI1_1, Q96QZ7): below the threshold; pKd (LIN7A, O14910): 3.51; pKd (GIPC2, Q8TF65): below the threshold; pKd (SCRIB_1, Q14160): 4.3; pKd (RHPN1, Q8TCX5): 4.24	B4
